From IntAct's records for PubMed 31515488

B1: Calcium-binding and coiled-coil domain-containing protein 2 (Homo sapiens), Q13137 (parent)
chain: MEETIKDPPTSAVLLDHCHFSQVIFNSVEKFYIPGGDVTCHYTFTQHFIPRRKDWIGIFRVGWKTTREYYTFMWVTLPIDLNNKSAKQQEVQFKAYYLPKDDEYYQFCYVDEDGVVRGASIPFQFRPENEEDILVVTTQGEVEEIEQHNKELCKENQELKDSCISLQKQNSDMQAELQKKQEELETLQSINKKLELKVKEQKDYWETELLQLKEQNQKMSSENEKMGIRVDQLQAQLSTQEKEMEKLVQGDQDKTEQLEQLKKENDHLFLSLTEQRKDQKKLEQTVEQMKQNETTAMKKQQELMDENFDLSKRLSENEIICNALQRQKERLEGENDLLKRENSRLLSYMGLDFNSLPYQVPTSDEGGARQNPGLAYGNPYSGIQESSSPSPLSIKKCPICKADDICDHTLEQQQMQPLCFNCPICDKIFPATEKQIFEDHVFCHSL
partner: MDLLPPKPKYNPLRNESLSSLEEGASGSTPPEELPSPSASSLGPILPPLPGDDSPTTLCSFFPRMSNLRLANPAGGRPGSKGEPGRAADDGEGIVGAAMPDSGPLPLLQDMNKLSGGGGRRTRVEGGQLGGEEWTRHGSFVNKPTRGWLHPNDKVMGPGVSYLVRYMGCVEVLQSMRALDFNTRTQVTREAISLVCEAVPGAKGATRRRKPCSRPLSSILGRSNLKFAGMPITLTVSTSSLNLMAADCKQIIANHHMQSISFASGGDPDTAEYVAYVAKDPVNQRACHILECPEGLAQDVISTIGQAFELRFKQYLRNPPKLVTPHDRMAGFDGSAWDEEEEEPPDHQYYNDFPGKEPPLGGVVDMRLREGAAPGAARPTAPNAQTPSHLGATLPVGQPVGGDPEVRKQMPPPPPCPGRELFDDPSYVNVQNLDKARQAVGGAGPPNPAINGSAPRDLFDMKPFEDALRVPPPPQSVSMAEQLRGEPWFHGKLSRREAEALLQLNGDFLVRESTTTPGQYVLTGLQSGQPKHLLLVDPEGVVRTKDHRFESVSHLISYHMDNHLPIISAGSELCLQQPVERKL
B2: Vesicle transport through interaction with t-SNAREs homolog 1B (Homo sapiens), Q9UEU0 (parent)
chain: MASSAASSEHFEKLHEIFRGLHEDLQGVPERLLGTAGTEEKKKLIRDFDEKQQEANETLAEMEEELRYAPLSFRNPMMSKLRNYRKDLAKLHREVRSTPLTATPGGRGDMKYGIYAVENEHMNRLQSQRAMLLQGTESLNRATQSIERSHRIATETDQIGSEIIEELGEQRDQLERTKSRLVNTSENLSKSRKILRSMSRKVTTNKLLLSIIILLELAILGGLVYYKFFRSH
partner: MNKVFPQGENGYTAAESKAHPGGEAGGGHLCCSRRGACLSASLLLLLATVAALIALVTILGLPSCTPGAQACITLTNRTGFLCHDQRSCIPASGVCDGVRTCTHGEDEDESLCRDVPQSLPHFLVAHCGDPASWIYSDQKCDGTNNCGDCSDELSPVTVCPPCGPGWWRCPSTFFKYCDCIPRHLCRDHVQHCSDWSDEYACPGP
B3: Tuftelin-interacting protein 11 (Homo sapiens), Q9UBB9 (parent)
chain: MSLSHLYRDGEGRIDDDDDERENFEITDWDLQNEFNPNRQRHWQTKEEATYGVWAERDSDDERPSFGGKRARDYSAPVNFISAGLKKGAAEEAELEDSDDEEKPVKQDDFPKDFGPRKLKTGGNFKPSQKGFAGGTKSFMDFGSWERHTKGIGQKLLQKMGYVPGRGLGKNAQGIINPIEAKQRKGKGAVGAYGSERTTQSMQDFPVVDSEEEAEEEFQKELSQWRKDPSGSKKKPKYSYKTVEELKAKGRISKKLTAPQKELSQVKVIDMTGREQKVYYSYSQISHKHNVPDDGLPLQSQQLPQSGKEAKAPGFALPELEHNLQLLIDLTEQEIIQNDRQLQYERDMVVNLFHELEKMTEVLDHEERVISNLSKVLEMVEECERRMQPDCSNPLTLDECARIFETLQDKYYEEYRMSDRVDLAVAIVYPLMKEYFKEWDPLKDCTYGTEIISKWKSLLENDQLLSHGGQDLSADAFHRLIWEVWMPFVRNIVTQWQPRNCDPMVDFLDSWVHIIPVWILDNILDQLIFPKLQKEVENWNPLTDTVPIHSWIHPWLPLMQARLEPLYSPIRSKLSSALQKWHPSDSSAKLILQPWKDVFTPGSWEAFMVKNIVPKLGMCLGELVINPHQQHMDAFYWVIDWEGMISVSSLVGLLEKHFFPKWLQVLCSWLSNSPNYEEITKWYLGWKSMFSDQVLAHPSVKDKFNEALDIMNRAVSSNVGAYMQPGARENIAYLTHTERRKDFQYEAMQERREAENMAQRGIGVAASSVPMNFKDLIETKAEEHNIVFMPVIGKRHEGKQLYTFGRIVIYIDRGVVFVQGEKTWVPTSLQSLIDMAK
partner: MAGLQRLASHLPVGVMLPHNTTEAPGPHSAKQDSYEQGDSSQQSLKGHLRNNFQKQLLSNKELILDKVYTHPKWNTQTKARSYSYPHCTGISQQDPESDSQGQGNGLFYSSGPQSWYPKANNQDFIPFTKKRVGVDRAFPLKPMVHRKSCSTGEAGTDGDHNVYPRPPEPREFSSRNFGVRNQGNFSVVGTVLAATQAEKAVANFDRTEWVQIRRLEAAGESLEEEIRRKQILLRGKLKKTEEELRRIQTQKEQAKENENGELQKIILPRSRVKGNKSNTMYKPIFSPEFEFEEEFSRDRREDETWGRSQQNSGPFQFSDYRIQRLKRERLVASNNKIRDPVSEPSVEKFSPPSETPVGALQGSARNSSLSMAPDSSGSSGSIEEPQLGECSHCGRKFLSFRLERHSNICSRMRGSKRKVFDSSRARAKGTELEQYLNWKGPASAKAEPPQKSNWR

Variants of: B1
Details: with shc1_human SHC1, P29353

Which “effect of a mutation on the interaction” value does the source give for E222K here?
Its value is “with no effect”.

Variants of: B2
Details: with lrad1_human LDLRAD1, Q5T700

R176H was tested. Which “effect of a mutation on the interaction” value did it give?
Its value is “with no effect”.

With R124Q as the variant, how does the “effect of a mutation on the interaction” value read?
Its value is “with no effect”.

Variants of: B3
Details: with zc21c_human ZC2HC1C

R8Q was tested. Which “effect of a mutation on the interaction” value did it give?
The value was “with no effect”.

For S688L, which “effect of a mutation on the interaction” value is on record?
The value was “with no effect”.
